Tested on: Actin of lily pollen tubes

| Substance | actin filaments distribution in lily pollen tubes (TRITC-phalloidin staining) | lily pollen tube length after 1.5 h in vitro (FIG. 31; control 0.26 mm) | lily pollen tube length after 2 h in vitro (control without RNase about 300 µm) |
| --- | --- | --- | --- |
| Aspergillus niger B1 extracellular RNase (RNase B1) | in RNase-treated pollen tubes masses of actin were accumulated at the tip cell wall | Both RNase B1 and IAc-RNase B1 exhibited a clear inhibitory effect on pollen tube growth | reached only 160 µm in length |
| RNase B1 boiled for 30 minutes | – | – | Boiling or autoclaving the RNase yielded pollen tubes of 130 and 170 µm in length, respectively |
| autoclaved RNase B1 | – | – | Boiling or autoclaving the RNase yielded pollen tubes of 130 and 170 µm in length, respectively |
| iodoacetylated (IAc-) RNase B1 | – | IAc RNase B1 inhibits pollen tubes growth in a similar manner of non-modified RNase B1 | – |

Reference: patent publication US20050113327
